Data: the supplement of paper PMC10567573

B1: SPACA3 (parent)
chain: FTSGFNAAALDYEADGSTNNGIFQ
B2: CPXM2 (parent)
chain: EILGCPLPDPNNYYHRRNEMTTTD

Variants of: B1
Assay: protein stability index of a GFP-peptide fusion (GPS, HEK-293T) (PSI 1-6); higher = more stable
Settings: c terminus: a fixed tail appended
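Note: lentivirally expressed fusions sorted by FACS into six bins by GFP to DsRed ratio, PSI derived from sequencing read proportions per bin multiplied by bin number.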

Protein stability index: each site, then its substitutions
F5: H 3.55, K 3.8, C 3.03
D15: W 2.46, A 2.11, P 1.64, Q 1.66, E 2.26, F 2.42, I 2.12
F23: R 2.16, I 2
Q24: K 1.87, N 1.67, G 2.36, E 2.33
G16: P 1.97, E 2.31, R 1.87
S17: V 2.06, Y 1.93, F 1.74
S3: H 2.14, Q 2.19, L 2.2, A 2.37, M 2.52
D11: V 2.6, Q 2.01, P 1.84, Y 2.66, C 2.03, G 2.46
N19: H 2.52, P 2.21
G21: Y 1.75, M 1.51, R 1.75, E 2.28, H 1.98, S 1.72
I22: A 2.36, T 2.06, Y 2.06, K 1.93, P 1.94
N6: T 1.61, K 2.45, Y 2.82, H 2.38, M 3.01, F 3.46
A9: K 1.62, Q 2.97, V 1.91, W 2.5, G 2.06
E13: V 2.08, N 2.09, A 1.76, P 1.55, L 1.72, D 2.32, T 2.21, W 3.11, G 1.44
T2: F 3.13, A 2.44, D 4.32, W 2.91, C 2.08, L 2.78, Y 2.75
Y12: M 1.83, Q 2.25, I 2.05, C 2.28, N 2.2
G4: M 1.74, N 2.3, P 2.78, D 2.79, A 1.82
A7: L 2.88, W 2.39, F 3.08
A14: R 2.27, V 2.17, M 2.02, T 1.96, K 2.5, L 1.8
N20: C 2.33, W 1.43, F 2.03, E 2.21, M 1.87
L10: G 2.38, S 1.53, Q 2.14, Y 1.64, P 2.25, H 2.32, M 2.08, F 2.3
T18: A 1.87, L 2.07, H 1.83, Q 1.82, F 1.78
A8: P 2.13, G 1.82, K 2.23
F1: D 5.15, R 4.61, Q 4.24

Variants of: B2
Assay: as above
Settings: c terminus: a fixed tail appended

Protein stability index, by site and new letter:
N12: D 4.07, L 3.42, P 3.45, H 3.36, A 3.67
P10: A 3.45, Q 3.4, I 3.09, E 4.08, F 3.18, T 3.6
L3: V 3.85, P 4.7, Q 4.13, W 3.84, F 3.38
L7: F 3.38, R 3.69, E 4.08, D 4.04, I 3.79, H 3.88, K 3.88
T21: Y 2.81, I 2.77, K 4.37, C 2.92, W 1.65, E 4.27, P 3.08
N18: V 2.77, Y 2.67, L 2.51, T 3.6, K 3.57, C 3.59
T23: H 3.6, F 2.43, Y 3.13, D 3.85, M 2.78, V 2.85, S 3.39, W 2.48, I 3.55, A 3.65
Y13: D 4.43, Q 4.06, L 3.58, K 4.14, N 3.89, C 3.77, P 4.12, I 3.92, V 4.03
I2: A 4.51, Y 3.77, F 3.75, H 4.64, E 4.91, M 4.04, L 3.34, K 4.54, S 4.51, R 4.28, V 3.79, N 4.55
R17: T 4.19, L 2.7, A 3.78, I 3.35, Q 4.02, W 2.63, E 4.43, H 3.3
R16: K 3.52, Q 4.03, I 3.21, V 3.19, A 3.84, H 3.56, C 3.15, P 3.55, F 2.71, W 2.76, G 4, L 3.28, D 3.98, Y 2.83, N 3.82, E 3.94, M 3.48
E1: M 2.23, A 3.2, P 4.63, Q 3.02, T 3.69, Y 2.29, C 2.83, S 3.54
G4: R 3.73, E 4.09, D 3.96, H 3.71, I 2.72, Y 3.13, C 3.47, W 2.77, K 3.39, T 3.49, L 2.69
D9: F 2.68, H 2.39, A 3.07, M 2.92, I 2.59, P 3.26, Y 2.75, C 3.17, E 3.15, V 3.04, Q 3.35, S 3.24
P6: W 2.46, T 3.49, L 2.14, Y 2.44, N 2.8, C 2.92, G 2.87, A 3.16, D 3.95, F 1.91, V 2.48
D24: N 3.07, Q 2.91, H 2.76, P 2.49
H15: G 3.88, S 3.56, N 3.68, Q 3.96, C 2.71, I 3.52
T22: F 2.77, I 2.81, W 1.85, H 3.51, K 3.54, V 3.38, S 3.48, Y 3.31, A 3.15, E 4.39
Y14: K 3.88, A 4.18, G 4.13, T 4.29, L 3.68, N 4.17, F 3.69, V 3.81, S 4.38, H 3.84
N11: E 4.07, D 3.57, G 3.15, M 3.21, I 2.48, F 2.96, A 3.43, T 3.48, C 2.72, S 3.16, Q 3.73
M20: F 2.98, E 4.59, D 4.35, K 3.53, S 3.98, P 3.92, A 3.99, C 3.69, L 2.95, H 3.69, G 4.6, V 3.7
E19: T 2.95, Y 2.6, P 2.86, Q 3.31, H 3.1, D 3.62, V 2.71, I 2.19, A 2.89
C5: A 3.79, Q 3.85, R 3.54, L 3.62, T 3.8, E 4.07, I 3.28, K 4.08
P8: R 3.56, A 2.9, K 3.58, V 3.01, G 3.8, S 3.17, Q 3.56, Y 2.71, D 4.22, H 2.82, F 2.61, E 3.88, W 2.62, N 3.31
